US7119182 (University of California, dated 2006)
Numbered stars: 1 amine (or outer) side, 2 acyl side, 3 side chain; on linkers, the order of the positions; unused ones are H or OH. Square brackets hold non-standard residues; d marks the D form. Ends that are not written are not given here. SMeCys = S-methylcysteine, CSC[C@H](N[*:1])C(=O)[*:2]; Tic = O=C(O)[C@@H]1Cc2ccccc2CN1; Cha = N[C@@H](CC1CCCCC1)C(=O)O; Phg = N[C@H](C(=O)O)c1ccccc1

T1: human thrombin receptor (human, UniProt P25116 42-425)
T1 chain: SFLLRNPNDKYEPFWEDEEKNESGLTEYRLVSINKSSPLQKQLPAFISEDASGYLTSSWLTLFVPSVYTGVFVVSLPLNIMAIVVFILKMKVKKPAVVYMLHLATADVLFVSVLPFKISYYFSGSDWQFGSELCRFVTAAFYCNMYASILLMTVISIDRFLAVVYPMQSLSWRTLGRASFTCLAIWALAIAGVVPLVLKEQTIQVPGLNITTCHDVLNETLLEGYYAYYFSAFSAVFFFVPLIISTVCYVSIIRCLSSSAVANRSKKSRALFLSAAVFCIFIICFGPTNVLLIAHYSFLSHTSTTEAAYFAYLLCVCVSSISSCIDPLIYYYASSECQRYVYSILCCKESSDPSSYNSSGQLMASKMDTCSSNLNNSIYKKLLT


Target: T1, human thrombin receptor
Assay: cell-based or functional assay

Binder	EC50 (concentration required to elicit a 50% maximal aggregation), platelet aggregation
GFLLR-NH2 [GFLLRNH2]	7.3 µM
SFXLR (N-MeLeu at position 3; C-terminal amide (NH2)) [SF(N-MeLeu)LR-NH2]	> 1000 µM
SFILR-NH2 [SFILR-NH2]	5.9 µM
CFLLR-NH2 [CFLLR-NH2]	193 µM
SFGLR-NH2 [SFGLR-NH2]	95 µM
SFLRR-NH2 [SFLRR-NH2]	1000 µM
SFLQRN-NH2 [SFLQRN-NH2]	61 µM
AFLLRNPNDKYE	12.9 µM
[SMeCys]FLLRN-NH2 (N-terminus assumed; SMILES CSC[C@H](N)C(=O)N[C@@H](Cc1ccccc1)C(=O)N[C@@H](CC(C)C)C(=O)N[C@@H](CC(C)C)C(=O)N[C@@H](CCCNC(=N)N)C(=O)N[C@@H](CC(N)=O)C(N)=O) [(S-MeCys)FLLRN-NH2]	129 µM
SXLLR (Cha at position 2; C-terminal amide (NH2)) [S(Cha)LLR-NH2]	140 µM
SF[Cha][Cha]RN-NH2 (N-terminus assumed; SMILES N=C(N)NCCC[C@H](NC(=O)[C@H](CC1CCCCC1)NC(=O)[C@H](CC1CCCCC1)NC(=O)[C@H](Cc1ccccc1)NC(=O)[C@@H](N)CO)C(=O)N[C@@H](CC(N)=O)C(N)=O) [SF(Cha) (Cha)RN-NH2]	1.1 µM
desaminoAsn-FLLR-NH2 [[desaminoAsn]-FLLR-NH2]	237 µM
SFLLRNP-NH2 [SFLLRNP-NH2]	4.5 µM
SFLL-NH2 [SFLL-NH2]	146 µM
TFLLRNPNDK	8.5 µM
SF[Cha]LRN-NH2 (N-terminus assumed; SMILES CC(C)C[C@H](NC(=O)[C@H](CC1CCCCC1)NC(=O)[C@H](Cc1ccccc1)NC(=O)[C@@H](N)CO)C(=O)N[C@@H](CCCNC(=N)N)C(=O)N[C@@H](CC(N)=O)C(N)=O) [SF(Cha)LRN-NH2]	1.3 µM
{2‑MeButyryl}-FLLR-NH2 [(2-MeButyryl]-FLLR-NH2]	1500 µM
SFPLR-NH2 [SFPLR-NH2]	22 µM
XFLLR (b-Ala at position 1; C-terminal amide (NH2)) [[b-Ala]-FLLR-NH2]	99 µM
SFLLX (D-Arg at position 5; C-terminal amide (NH2)) [SFLL(D-Arg)-NH2]	594 µM
XFLLR (desaminoSer at the N-terminus; C-terminal amide (NH2)) [[desaminoSer]-FLLR-NH2]	920 µM
SFHLRN-NH2 [SFHLRN-NH2]	40.5 µM
SFWLR-NH2 [SFWLR-NH2]	24 µM
SFRLR-NH2 [SFRLR-NH2]	7.4 µM
SXLLR (Nal at position 2; C-terminal amide (NH2)) [S(Nal)LLR-NH2]	42 µM

Binder	EC50 (concentration required to elicit a 50% maximal aggregation), platelet aggregation
Ac-FLLRNPNDKYEPF [Ac-FLLRNPNDKYEPF]	796 µM
SFLAR-NH2 [SFLAR-NH2]	146 µM
SXLLR (Thi at position 2; C-terminal amide (NH2)) [S(Thi)LLR-NH2]	7.6 µM
SFLLR-NH2 [SFLLR-NH2]	7.5 µM
SFLLA-NH2 [SFLLA-NH2]	137 µM
SFL[Cha]R-NH2 (N-terminus assumed; SMILES CC(C)C[C@H](NC(=O)[C@H](Cc1ccccc1)NC(=O)[C@@H](N)CO)C(=O)N[C@@H](CC1CCCCC1)C(=O)N[C@@H](CCCNC(=N)N)C(N)=O) [SFL(Cha)R-NH2]	6 µM
SFYLRN-NH2 [SFYLRN-NH2]	4.9 µM
SFLLRNPNDKYE	6.6 µM
SFLLRNPNDK	6.3 µM
SFALRNPNDKYE	20.7 µM
SFLIRN-NH2 [SFLIRN-NH2]	20.5 µM
SF[Cha]LR-NH2 (N-terminus assumed; SMILES CC(C)C[C@H](NC(=O)[C@H](CC1CCCCC1)NC(=O)[C@H](Cc1ccccc1)NC(=O)[C@@H](N)CO)C(=O)N[C@@H](CCCNC(=N)N)C(N)=O) [SF(Cha)LR-NH2]	1.5 µM
SFLFR-NH2 [SFLFR-NH2]	17 µM
SFLLRNPN	7.6 µM
SYLLR-NH2 [SYLLR-NH2]	288 µM
SFFLR-NH2 [SFFLR-NH2]	3.4 µM
{3‑Tetrahydrofuranoyl}-FLLR-NH2 [[3-Tetrahydrofuranoyl]-FLLR-NH2]	1000 µM
SFLLRN-NH2 [SFLLRN-NH2]	1.6 µM
SFFLRN-NH2 [SFFLRN-NH2]	1.5 µM
SXLLR (OMeTyr at position 2; C-terminal amide (NH2)) [S(OMeTyr)LLR-NH2]	46 µM
SF[Tic]LRN-NH2 (N-terminus assumed; SMILES CC(C)C[C@H](NC(=O)[C@@H]1Cc2ccccc2CN1C(=O)[C@H](Cc1ccccc1)NC(=O)[C@@H](N)CO)C(=O)N[C@@H](CCCNC(=N)N)C(=O)N[C@@H](CC(N)=O)C(N)=O) [SF(Tic)LRN-NH2]	11.3 µM
SF[Cha][Cha]LRNPNDK [SF(Cha) (Cha)LRNPNDK]	5.4 µM
SF[Phg]LR-NH2 (N-terminus assumed; SMILES CC(C)C[C@H](NC(=O)[C@@H](NC(=O)[C@H](Cc1ccccc1)NC(=O)[C@@H](N)CO)c1ccccc1)C(=O)N[C@@H](CCCNC(=N)N)C(N)=O) [SF(Phg)LR-NH2]	6.7 µM
SFL[Nal]RN-NH2 (not fully specified; printed as SFL(Nal)RN-NH2) [SFL(Nal)RN-NH2]	7.5 µM
